Results from the Immune Epitope Database (IEDB).

Key:
Assay in all cases: IEDB peptide-MHC binding, purified MHC/competitive/radioactivity; filed as Kd, often an IC50 or EC50 that approximates it; ≥ and ≤ were set here for values at or beyond the usual limits of such assays
[1] = target: HLA-A*11:01
[2] = target: HLA-A*03:01
[3] = target: HLA-A*68:01
[4] = target: HLA-A*33:01
[5] = target: HLA-A*31:01
[6] = target: HLA-A*02:03
[7] = target: HLA-A*02:06; settings: source organism: Dengue virus 1 Brazil/97-11/1997
[8] = source organism: Vaccinia virus WR
[9] = source organism: Vaccinia virus Copenhagen
[10] = source organism: Mammarenavirus machupoense
[11] = source organism: Mammarenavirus juninense
[12] = source organism: Lassa virus Josiah
[13] = source organism: SARS coronavirus Tor2

Row | Sequence | Kd [1, 8] | Kd [2, 8] | Kd [3, 8] | Kd [4, 8] | Kd [5, 8] | further results
1 | SIGNVTRLFY | 0.025 µM | 0.00294 µM | 2.05 µM | 17.4 µM | 3.05 µM | –
2 | SIILANERY | 0.233 µM | ≥ 78 µM | 0.607 µM | ≥ 77.7 µM | 19.9 µM | –
3 | SLAIKNYYRK | – | – | – | – | – | Kd [1, 9]: 0.0106 µM; Kd [2, 9]: 0.0353 µM; Kd [3, 9]: 1.77 µM; Kd [4, 9]: 1.18 µM; Kd [5, 9]: 0.297 µM
4 | SMGFKVTTR | 4.73 µM | 5.01 µM | 1.27 µM | 0.166 µM | 0.00194 µM | –
5 | SMTYLYNKY | 1.66 µM | 9.93 µM | 1.75 µM | 8.75 µM | ≥ 25 µM | –
6 | SSFDYCGVNH | – | – | – | – | – | Kd [1, 10]: 4.84 µM; Kd [2, 10]: 8.19 µM; Kd [3, 10]: 0.492 µM; Kd [4, 10]: 6.43 µM; Kd [5, 10]: 1.97 µM
7 | STELIRRVR | 0.127 µM | 0.0139 µM | 0.0571 µM | 1.32 µM | 0.0918 µM | –
8 | SWPVQCPLDH | – | – | – | – | – | Kd [1, 11]: ≥ 69.7 µM; Kd [2, 11]: ≥ 70 µM; Kd [3, 11]: ≥ 70.1 µM; Kd [4, 11]: 19.4 µM; Kd [5, 11]: 0.00974 µM
9 | TCNDHYLCLR | – | – | – | – | – | Kd [1, 10]: ≥ 61.8 µM; Kd [2, 10]: ≥ 33.3 µM; Kd [3, 10]: 2.21 µM; Kd [4, 10]: 0.718 µM; Kd [5, 10]: 0.123 µM
10 | TCQGSDDIR | – | – | – | – | – | Kd [1, 12]: ≥ 77.9 µM; Kd [2, 12]: ≥ 78 µM; Kd [3, 12]: 14.5 µM; Kd [4, 12]: 12.1 µM; Kd [5, 12]: ≥ 22.3 µM
11 | TFVNFNSVK | 0.0214 µM | 0.784 µM | 0.0125 µM | 0.197 µM | 0.103 µM | –
12 | TIDKSSPLY | 0.0817 µM | 0.0652 µM | 0.206 µM | ≥ 77.7 µM | ≥ 53.7 µM | –
13 | TIQRFSSLRR | 0.00188 µM | 0.0786 µM | 0.00724 µM | 0.00981 µM | 0.00156 µM | –
14 | TLATGPITTL | – | – | – | – | – | Kd ([6]; source organism: Dengue virus 3 Martinique/1243/1999): 0.012 µM
15 | TLYAVATTIL | – | – | – | – | – | Kd ([6]; source organism: Dengue virus 4 Philippines/H241/1956): 0.101 µM
16 | TMHANYIFWR | – | – | – | – | – | Kd [1, 13]: 0.125 µM; Kd [2, 13]: 1.26 µM; Kd [3, 13]: 0.0355 µM; Kd [4, 13]: 0.121 µM; Kd [5, 13]: 0.0113 µM
17 | TQMRTPLHK | 0.078 µM | 1.18 µM | 8.96 µM | ≥ 77.7 µM | 3.52 µM | –

Row | Sequence | Kd [1, 8] | Kd [2, 8] | Kd [3, 8] | Kd [4, 8] | Kd [5, 8] | further results
18 | TQNVLYENQK | – | – | – | – | – | Kd [1, 13]: 0.523 µM; Kd [2, 13]: ≥ 29.2 µM; Kd [3, 13]: 3.09 µM; Kd [4, 13]: ≥ 70 µM; Kd [5, 13]: 13.3 µM
19 | TSASEIKDR | 1.68 µM | ≥ 78 µM | 0.00993 µM | 1.34 µM | 18.9 µM | –
20 | TVYVYSRVK | – | – | – | – | – | Kd [1, 13]: 0.145 µM; Kd [2, 13]: 0.0675 µM; Kd [3, 13]: 0.919 µM; Kd [4, 13]: 1.07 µM; Kd [5, 13]: 0.769 µM
21 | VFIHMVRCCK | 4.82 µM | ≥ 20.9 µM | ≥ 24.5 µM | 0.212 µM | 0.0439 µM | –
22 | VLAYMLFTK | – | – | – | – | – | Kd [1, 13]: 0.000894 µM; Kd [2, 13]: 0.000179 µM; Kd [3, 13]: 0.00796 µM; Kd [4, 13]: 1.89 µM; Kd [5, 13]: 0.223 µM
23 | VLSAATETY | 6.46 µM | 3.01 µM | 1.47 µM | ≥ 77.7 µM | ≥ 69.7 µM | –
24 | VSKHWELTNK | 0.157 µM | 0.68 µM | 1.52 µM | 11.9 µM | 1.78 µM | –
25 | VVMAYVGIK | 0.00124 µM | 0.0186 µM | 0.019 µM | ≥ 23.2 µM | 2.46 µM | –
26 | VVMHINSPFK | 0.00256 µM | 0.00841 µM | 0.0374 µM | 11.6 µM | 0.123 µM | –
27 | WALRHPGFTV | – | – | – | – | – | Kd [7]: 0.0837 µM
28 | WIMLLQFAY | – | – | – | – | – | Kd [1, 13]: 14.1 µM; Kd [2, 13]: 4.09 µM; Kd [3, 13]: ≥ 23 µM; Kd [4, 13]: ≥ 77.7 µM; Kd [5, 13]: 5.33 µM
29 | YFVCWHTHNY | – | – | – | – | – | Kd [1, 13]: 8.12 µM; Kd [2, 13]: 1.52 µM; Kd [3, 13]: 4.86 µM; Kd [4, 13]: 1.82 µM; Kd [5, 13]: 2.33 µM
30 | YILQLIRHGR | ≥ 27.4 µM | 11.2 µM | 0.0103 µM | 0.256 µM | 0.0402 µM | –
31 | YSFKLILAEY | 7.29 µM | 8.18 µM | 3.67 µM | 7.96 µM | 0.658 µM | –
32 | YSKKFQESFY | 7.41 µM | 2.72 µM | 1.78 µM | ≥ 70 µM | 14.4 µM | –
33 | YVGIKLGDK | 0.65 µM | 0.987 µM | 2.09 µM | ≥ 50.6 µM | ≥ 24.9 µM | –
34 | YVKALTKNY | 12.7 µM | 1.59 µM | 1.8 µM | ≥ 77.7 µM | ≥ 77.9 µM | –
